{
  "source": "the supplement of paper PMC10567573",
  "parents": {"B1": {"name": "TEKT4 (parent)", "chain": "YARYHQAFADRDQSERQRHESQQL"}},
  "data": [
    {"variants_of": "B1", "assay": "protein stability index of a GFP-peptide fusion (GPS, HEK-293T) (PSI 1-6); higher = more stable", "settings": "c terminus: a fixed tail appended", "values": [
      {"variant": "YARYHQAFADRDQSWRQRHESQQL", "note": "[E15W]", "protein stability index": 1.61},
      {"variant": "YARYHQAFADRDQSGRQRHESQQL", "note": "[E15G]", "protein stability index": 1.9},
      {"variant": "YARYHQAFADRDQSQRQRHESQQL", "note": "[E15Q]", "protein stability index": 1.97},
      {"variant": "YARYHQAFADRDQSRRQRHESQQL", "note": "[E15R]", "protein stability index": 1.78},
      {"variant": "YARYHQAFADRDQSFRQRHESQQL", "note": "[E15F]", "protein stability index": 2.76},
      {"variant": "YARYHQAFADRDQSIRQRHESQQL", "note": "[E15I]", "protein stability index": 1.52},
      {"variant": "YARYHQAFADRDQSNRQRHESQQL", "note": "[E15N]", "protein stability index": 2.35},
      {"variant": "YARYHQAFADRDQSARQRHESQQL", "note": "[E15A]", "protein stability index": 1.87},
      {"variant": "YARYHQAFADRDQSCRQRHESQQL", "note": "[E15C]", "protein stability index": 2.36},
      {"variant": "YARYHQAFADRDQSDRQRHESQQL", "note": "[E15D]", "protein stability index": 2.1},
      {"variant": "YARYHQAFADRDQSMRQRHESQQL", "note": "[E15M]", "protein stability index": 1.31},
      {"variant": "YARYHQAFADRDQSYRQRHESQQL", "note": "[E15Y]", "protein stability index": 1.09},
      {"variant": "YARYHQAFADRDQSSRQRHESQQL", "note": "[E15S]", "protein stability index": 1.76},
      {"variant": "YARYHQAFADRDQSKRQRHESQQL", "note": "[E15K]", "protein stability index": 1.73},
      {"variant": "YARYHQAFADRDQSTRQRHESQQL", "note": "[E15T]", "protein stability index": 2.07},
      {"variant": "YARYHQAFADRDQSLRQRHESQQL", "note": "[E15L]", "protein stability index": 2.18},
      {"variant": "YARYHQAFADRDQSHRQRHESQQL", "note": "[E15H]", "protein stability index": 1.75},
      {"variant": "YARYHQAFADRDQSPRQRHESQQL", "note": "[E15P]", "protein stability index": 1.8},
      {"variant": "YARYHQAFADRDQSVRQRHESQQL", "note": "[E15V]", "protein stability index": 1.83},
      {"variant": "YARYHQAFADRDQSETQRHESQQL", "note": "[R16T]", "protein stability index": 2.26},
      {"variant": "YARYHQAFADRDQSEWQRHESQQL", "note": "[R16W]", "protein stability index": 2.07},
      {"variant": "YARYHQAFADRDQSEQQRHESQQL", "note": "[R16Q]", "protein stability index": 2.21},
      {"variant": "YARYHQAFADRDQSEFQRHESQQL", "note": "[R16F]", "protein stability index": 2.81},
      {"variant": "YARYHQAFADRDQSEIQRHESQQL", "note": "[R16I]", "protein stability index": 2.2},
      {"variant": "YARYHQAFADRDQSEEQRHESQQL", "note": "[R16E]", "protein stability index": 2.43},
      {"variant": "YARYHQAFADRDQSEYQRHESQQL", "note": "[R16Y]", "protein stability index": 1.91},
      {"variant": "YARYHQAFADRDQSEHQRHESQQL", "note": "[R16H]", "protein stability index": 2.28},
      {"variant": "YARYHQAFADRDQSECQRHESQQL", "note": "[R16C]", "protein stability index": 2.63},
      {"variant": "YARYHQAFADRDQSEKQRHESQQL", "note": "[R16K]", "protein stability index": 1.93},
      {"variant": "YARYHQAFADRDQSEPQRHESQQL", "note": "[R16P]", "protein stability index": 2.08},
      {"variant": "YARYHQAFADRDQSELQRHESQQL", "note": "[R16L]", "protein stability index": 3.1},
      {"variant": "YARYHQAFADRDQSEDQRHESQQL", "note": "[R16D]", "protein stability index": 2.4},
      {"variant": "YARYHQAFADRDQSEAQRHESQQL", "note": "[R16A]", "protein stability index": 2.35},
      {"variant": "YARYHQAFADRDQSEMQRHESQQL", "note": "[R16M]", "protein stability index": 1.89},
      {"variant": "YARYHQAFADRDQSEVQRHESQQL", "note": "[R16V]", "protein stability index": 2.35},
      {"variant": "YARYHQAFADRDQSEGQRHESQQL", "note": "[R16G]", "protein stability index": 2.48},
      {"variant": "YARYHQAFADRDQSESQRHESQQL", "note": "[R16S]", "protein stability index": 2},
      {"variant": "YARYHQAFADRDQSENQRHESQQL", "note": "[R16N]", "protein stability index": 2.4},
      {"variant": "YARYHQAFADRDQSERIRHESQQL", "note": "[Q17I]", "protein stability index": 2.34},
      {"variant": "YARYHQAFADRDQSERERHESQQL", "note": "[Q17E]", "protein stability index": 1.63},
      {"variant": "YARYHQAFADRDQSERFRHESQQL", "note": "[Q17F]", "protein stability index": 2.56},
      {"variant": "YARYHQAFADRDQSERDRHESQQL", "note": "[Q17D]", "protein stability index": 2.21},
      {"variant": "YARYHQAFADRDQSERGRHESQQL", "note": "[Q17G]", "protein stability index": 1.87},
      {"variant": "YARYHQAFADRDQSERHRHESQQL", "note": "[Q17H]", "protein stability index": 1.9},
      {"variant": "YARYHQAFADRDQSERCRHESQQL", "note": "[Q17C]", "protein stability index": 2.07},
      {"variant": "YARYHQAFADRDQSERARHESQQL", "note": "[Q17A]", "protein stability index": 2},
      {"variant": "YARYHQAFADRDQSERKRHESQQL", "note": "[Q17K]", "protein stability index": 2.13},
      {"variant": "YARYHQAFADRDQRERQRHESQQL", "note": "[S14R]", "protein stability index": 1.63},
      {"variant": "YARYHQAFADRDQHERQRHESQQL", "note": "[S14H]", "protein stability index": 1.99},
      {"variant": "YARYHQAFADRDQVERQRHESQQL", "note": "[S14V]", "protein stability index": 2.31},
      {"variant": "YARYHQAFADRDQWERQRHESQQL", "note": "[S14W]", "protein stability index": 1.71},
      {"variant": "YARYHQAFADRDQDERQRHESQQL", "note": "[S14D]", "protein stability index": 2.76},
      {"variant": "YARYHQAFADRDQLERQRHESQQL", "note": "[S14L]", "protein stability index": 2.72},
      {"variant": "YARYHQAFADRDQNERQRHESQQL", "note": "[S14N]", "protein stability index": 2.21},
      {"variant": "YARYHQAFADRDQMERQRHESQQL", "note": "[S14M]", "protein stability index": 1.79},
      {"variant": "YARYHQAFADRDQIERQRHESQQL", "note": "[S14I]", "protein stability index": 2.16},
      {"variant": "YARYHQAFADRDQKERQRHESQQL", "note": "[S14K]", "protein stability index": 2.22},
      {"variant": "YARYHQAFADRDQQERQRHESQQL", "note": "[S14Q]", "protein stability index": 2.13},
      {"variant": "YARYHQAFADRDQEERQRHESQQL", "note": "[S14E]", "protein stability index": 2.59},
      {"variant": "YARYHQAFADRDQGERQRHESQQL", "note": "[S14G]", "protein stability index": 1.8},
      {"variant": "YARYHQAFADRDQPERQRHESQQL", "note": "[S14P]", "protein stability index": 3.2},
      {"variant": "YARYHQAFADRDQYERQRHESQQL", "note": "[S14Y]", "protein stability index": 2.07},
      {"variant": "YARYHQAFADRDQFERQRHESQQL", "note": "[S14F]", "protein stability index": 1.48},
      {"variant": "YARYHQAFADRDQCERQRHESQQL", "note": "[S14C]", "protein stability index": 1.46},
      {"variant": "YARYHQAFADRDQAERQRHESQQL", "note": "[S14A]", "protein stability index": 1.88},
      {"variant": "YARYHQAFADRDQTERQRHESQQL", "note": "[S14T]", "protein stability index": 2.37},
      {"variant": "YARYHQAFADRDWSERQRHESQQL", "note": "[Q13W]", "protein stability index": 1.72},
      {"variant": "YARYHQAFADRDISERQRHESQQL", "note": "[Q13I]", "protein stability index": 2.35},
      {"variant": "YARYHQAFADRDYSERQRHESQQL", "note": "[Q13Y]", "protein stability index": 1.85},
      {"variant": "YARYHQAFADRDLSERQRHESQQL", "note": "[Q13L]", "protein stability index": 2.49},
      {"variant": "YARYHQAFADRDNSERQRHESQQL", "note": "[Q13N]", "protein stability index": 2.22},
      {"variant": "YARYHQAFADRDRSERQRHESQQL", "note": "[Q13R]", "protein stability index": 1.88},
      {"variant": "YARYHQAFADRDTSERQRHESQQL", "note": "[Q13T]", "protein stability index": 1.79},
      {"variant": "YARYHQAFADRDHSERQRHESQQL", "note": "[Q13H]", "protein stability index": 2.19},
      {"variant": "YARYHQAFADRDDSERQRHESQQL", "note": "[Q13D]", "protein stability index": 2.35},
      {"variant": "YARYHQAFADRDFSERQRHESQQL", "note": "[Q13F]", "protein stability index": 1.83},
      {"variant": "YARYHQAFADRDASERQRHESQQL", "note": "[Q13A]", "protein stability index": 1.96},
      {"variant": "YARYHQAFADRDSSERQRHESQQL", "note": "[Q13S]", "protein stability index": 2.49},
      {"variant": "YARYHQAFADRDMSERQRHESQQL", "note": "[Q13M]", "protein stability index": 1.64},
      {"variant": "YARYHQAFADRDKSERQRHESQQL", "note": "[Q13K]", "protein stability index": 1.91},
      {"variant": "YARYHQAFADRDCSERQRHESQQL", "note": "[Q13C]", "protein stability index": 2.13},
      {"variant": "YARYHQAFADRDGSERQRHESQQL", "note": "[Q13G]", "protein stability index": 2.08},
      {"variant": "YARYHQAFADRDPSERQRHESQQL", "note": "[Q13P]", "protein stability index": 2.36},
      {"variant": "YARYHQAFADRDVSERQRHESQQL", "note": "[Q13V]", "protein stability index": 1.99},
      {"variant": "YARYHQAFADRDESERQRHESQQL", "note": "[Q13E]", "protein stability index": 1.74},
      {"variant": "YARYHQAFADRSQSERQRHESQQL", "note": "[D12S]", "protein stability index": 1.67},
      {"variant": "YARYHQAFADRWQSERQRHESQQL", "note": "[D12W]", "protein stability index": 2.99},
      {"variant": "YARYHQAFADRYQSERQRHESQQL", "note": "[D12Y]", "protein stability index": 1.86},
      {"variant": "YARYHQAFADRPQSERQRHESQQL", "note": "[D12P]", "protein stability index": 1.57},
      {"variant": "YARYHQAFADRVQSERQRHESQQL", "note": "[D12V]", "protein stability index": 2.06},
      {"variant": "YARYHQAFADRNQSERQRHESQQL", "note": "[D12N]", "protein stability index": 1.93},
      {"variant": "YARYHQAFADRTQSERQRHESQQL", "note": "[D12T]", "protein stability index": 2.12},
      {"variant": "YARYHQAFADRQQSERQRHESQQL", "note": "[D12Q]", "protein stability index": 2.31},
      {"variant": "YARYHQAFADRRQSERQRHESQQL", "note": "[D12R]", "protein stability index": 1.44}
    ]}
  ]
}
